Publication PMC8965725

Target: NRP-1 expressed on GL261 cells (mouse (endogenous in GL261)) (UniProt P97333)

RGE fusion protein nanoparticles (RGE peptide-linker-HFn) (designed binder)
cellular FITC fluorescence of GL261 cells incubated with FITC-labeled NPs, flow cytometry, normalized to cells without treatment (cellular internalization): 42%
